Data on 4 sequences can be found in US20240425885.

The data set relates to T1, OMNI-90 (metagenomic, unknown).
T1 sequence: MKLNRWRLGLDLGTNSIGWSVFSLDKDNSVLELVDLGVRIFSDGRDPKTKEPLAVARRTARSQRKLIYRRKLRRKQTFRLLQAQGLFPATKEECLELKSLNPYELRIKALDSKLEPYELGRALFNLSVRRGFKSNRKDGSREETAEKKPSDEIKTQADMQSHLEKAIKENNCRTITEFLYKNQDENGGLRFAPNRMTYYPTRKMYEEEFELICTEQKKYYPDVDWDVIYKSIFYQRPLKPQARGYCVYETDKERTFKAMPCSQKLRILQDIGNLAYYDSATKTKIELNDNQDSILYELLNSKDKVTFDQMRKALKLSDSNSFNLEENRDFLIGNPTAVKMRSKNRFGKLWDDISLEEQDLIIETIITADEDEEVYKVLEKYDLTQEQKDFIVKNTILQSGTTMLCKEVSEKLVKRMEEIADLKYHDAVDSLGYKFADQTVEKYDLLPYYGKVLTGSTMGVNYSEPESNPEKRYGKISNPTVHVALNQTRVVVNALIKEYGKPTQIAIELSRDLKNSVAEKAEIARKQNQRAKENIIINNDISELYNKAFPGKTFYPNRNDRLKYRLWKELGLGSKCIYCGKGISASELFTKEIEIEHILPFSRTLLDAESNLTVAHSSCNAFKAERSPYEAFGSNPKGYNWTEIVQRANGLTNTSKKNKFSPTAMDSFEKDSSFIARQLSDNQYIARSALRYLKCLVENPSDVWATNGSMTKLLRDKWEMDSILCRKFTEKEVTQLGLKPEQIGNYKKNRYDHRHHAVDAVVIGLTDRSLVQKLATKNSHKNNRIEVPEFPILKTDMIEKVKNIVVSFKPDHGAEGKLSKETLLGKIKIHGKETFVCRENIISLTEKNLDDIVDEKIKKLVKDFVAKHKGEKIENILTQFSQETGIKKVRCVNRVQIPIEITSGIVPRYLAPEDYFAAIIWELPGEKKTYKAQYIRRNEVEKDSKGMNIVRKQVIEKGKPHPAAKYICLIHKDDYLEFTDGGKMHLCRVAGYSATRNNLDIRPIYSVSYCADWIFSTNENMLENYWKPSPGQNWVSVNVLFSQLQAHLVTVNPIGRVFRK
The data set is described as follows: cleavage_in_vitro. Particulars: TXTL, PAM NNATTGYN

For the sequence “GGAAGAGCAGAGCCUUGGUCUCGUUGCAGGUUGACCGGGAAAGCGGUCAACCUGCUAACAAGGAAACCUUUAGUUUCCGCAAUAUGCUUUAAUAUUCGUUGAGAUUAUUGCGUGAAUAUAGAUAGCACACAAUGCAAAGGGAAAGCUACGGCUUUCCCCCUUUUUUUU / GGAAGAGCAGAGCCTTGGTCTCNNNNNNNN / NNNNNNNNGAGACCAAGGCTCTGCTCTTCC [T2 sgRNA 1 V2 ; T2 protospacer + 8N PAM library (pbPOS T2)]”, the activity (1-depletion score) stood at 0.94.

For “GGAAGAGCAGAGCCUUGGUCUCGUUGCAGGUUGACCGGGAAAGCGGUCAACCUGCUAACAAGGAAACCUUUAGUUUCCGCAAUAUGCUUUAAUAUUCGUUGAGAUUAUUGCGUGAAUAUAGAUUUUU / GGAAGAGCAGAGCCTTGGTCTCNNNNNNNN / NNNNNNNNGAGACCAAGGCTCTGCTCTTCC [T2 sgRNA 1 V4 ; T2 protospacer + 8N PAM library (pbPOS T2)]”, the activity (1-depletion score) (two last hairpins deleted) stood at 0.96. With “GGAAGAGCAGAGCCUUGGUCUCGUUGCAGGUUGACCGGGAAAGCGGUCAACCUGCUAACAAGGAAACCUUUAGUUUCCGCAAUAUGCUUUAAUAUUCGUUGAGAUUAUUGCGUGAAUAUAGAUAGCACACAAUGCUUUUU / GGAAGAGCAGAGCCTTGGTCTCNNNNNNNN / NNNNNNNNGAGACCAAGGCTCTGCTCTTCC [T2 sgRNA 1 V3 ; T2 protospacer + 8N PAM library (pbPOS T2)]”, where the note is “terminal hairpin deleted”, the activity (1-depletion score) is 0.95. Turning to “GGAAGAGCAGAGCCUUGGUCUCGUUGCAGGUUGACCGGGAAAGCGGUCAACCUGCUAACAAGGAAACCUUUAGUUUCCGCAAAAUGCUUUUAUAUUCGUUGAGAUUUUUGCGUGAAUAUAGAUAGCACACAAUGCAAAGGGAAAGCUACGGCUUUCCCCCUUUUUUUU / GGAAGAGCAGAGCCTTGGTCTCNNNNNNNN / NNNNNNNNGAGACCAAGGCTCTGCTCTTCC [T2 sgRNA 1 V1 ; T2 protospacer + 8N PAM library (pbPOS T2)]”, the activity (1-depletion score) is 0.95.
